# Paper PMC7367685, “Reconstitution reveals two paths of force transmission through the kinetochore” (eLife, 2020)
# Where a chain is given by its changes, count along the chain named. Names may count otherwise.
# B1: MIND complex, wild type (Nsl1, FLAG-Dsn1, Mtw1, Nnf1) (complex, S. cerevisiae)
# chain 1: MSQGQSKKLDVTVEQLRSIYHQFHDILEEKTDLHLPKKEYDDDAVRREVQIQLQEFLLSAMTMASKSLEVVNADTVGKTVKQLIMESQEKYMEPFDLDLNEQVRKMYQEWEDETVKVAQLRQTGPAKINEVYNNSKDEYLAQLDGRIGVLQARMMQQQSADHDDSTDDADDHINWEHIKQDYVASLNELYQTQQDLPKVRYNVEKVKRLMDFLEED
# chain 2: MSLEPTQTVSGTPPMLHQRTHKQVYPLRMETIPILESDSKATLQSNEPTQKDEEETEYFENKQSVSNLSPDLKFKRHKNKHIQGFPTLGERLDNLQDIKKAKRVENFNSSAPIADDNHSGDATANATANATANATANVNASAMPAPYMPYYYYYHPMNAPTPAMIPYPGSPMHSIMPNSSLQPFYSQPTAAGGPDMTTPQNISSSQQLLPAPQLFPYGSFHQQQLQQPHYIQRTRERKKSIGSQRGRRLSMLASQANGGSTIISPHKDIPEEDFYTVVGNASFGKNLQIRQLFNWCLMRSLHKLELKAKNQEEEGELEHLTKKSKLESTKAETDYVDPKRLAMVIIKEFVDDLKKDHIAIDWEDEEKYEDEDEEKILDNTENYDDTELRQLFQENDDDDDDDDEVDYSEIQRSRRKFSERRKALPKEPKKLLPNSKNVENTKNLSILTSKVNAIKNEVKEWAVTLDTSRPDLEWQELTSFSSQPLEPLSDTEEPDLAIADVETKLETKVDELRYQSHILNSHSLALNEITNSKVNKLNIETMRKISSETDDDHSQVINPQQLLKGLSLSFSKKLDL
# chain 3: MSAPTMRSTSILTEHLGYPPISLVDDIINAVNEIMYKCTAAMEKYLLSKSKIGEEDYGEEIKSGVAKLESLLENSVDKNFDKLELYVLRNVLRIPEEYLDANVFRLENQKDLVIVDENELKKSEEKLREKVNDVELAFKKNEMLLKRVTKVKRLLFTIRGFKQKLNELLKCKDDVQLQKILESLKPIDDTMTLLTDSLRKLYVDSESTSSTEEVEALLQRLKTNGKQNNKDFRTRYIDIRTNNVLRKLGLLGDKEDEKQSAKPDARTQAGDIVSIDIEEPQLDLLDDVL
# chain 4: MVNSHGIRYIRLKQVFNRALDQSISKLQSWDKVSSCFPQYVNSKQGAINVANCQRQLTEFWTELCQREFKEIMEERNVEQKLNELDELILEAKERYTDRDQDEVNKGPAIDELSSKELVECHLYSQRMHAIHEIDERLAKVNEMNDQLAQELKDLETQVEVEKNEIGKMYDEYLGSHTDQPANVLLVQSLNDMVLELKENY
# notes: Nsl1, S. cerevisiae; Dsn1, S. cerevisiae; Mtw1, S. cerevisiae; Nnf1, S. cerevisiae; also called wild-type MIND; pGH46; copies: + + +
# B2: 2D-MIND complex (FLAG-Nsl1, S240D, S250D-Dsn1, Mtw1, Nnf1) (complex, S. cerevisiae)
# chain 1: B1 chain 1
# chain 2: B1 chain 2 with S240D, S250D
# chain 3: B1 chain 3
# chain 4: B1 chain 4
# notes: Nsl1, S. cerevisiae; Dsn1, S. cerevisiae, with two phosphomimetic substitutions; Mtw1, S. cerevisiae; Nnf1, S. cerevisiae; also called phosphomimetic MIND; pGH62; copies: + + +
# Tests used:
# [1] = biological target: Cse4-NCP: nucleosome core particle of K. lactis 6XHis-H2A, K. lactis 6XHis-H2B, S. cerevisiae Cse4 and K. lactis 6XHis-H4, wrapped in 601 DNA (Kluyveromyces lactis | S. cerevisiae) (UniProt P36012); assay: optical trap force-ramp rupture assay; same beads and free proteins (10 nM each) as the attachment assay; bead on a growing microtubule tip, 1 pN preload, then a ramp of 0.25 pN/s until detachment; median rupture force of the whole chain; not single-molecule conditions; room temperature
# [2] = biological target: Cse4-NCP: nucleosome core particle of K. lactis 6XHis-H2A, K. lactis 6XHis-H2B, S. cerevisiae Cse4 and K. lactis 6XHis-H4, wrapped in 601 DNA (Kluyveromyces lactis | S. cerevisiae) (UniProt P36012); assay: optical trap bead-microtubule attachment assay (self-assembly and microtubule binding); one His6-tagged subcomplex on anti-His5 polystyrene beads (10 nM on 3.5 pM beads), the other subcomplexes free at 10 nM each; the bead was brought to a single growing microtubule with the laser trap, and a bead whose contact did not persist with the laser off counted as a nonbinder; no external force; BRB80 growth buffer with 1 mM GTP, room temperature; in negative controls one subcomplex was omitted
# [3] = biological target: T1, Ndc80c (Ndc80, Nuf2, Spc24-Flag, Spc25) (S. cerevisiae, UniProt P40460 1-691; P33895 1-451; Q04477 1-213; P40014 1-221); assay: optical trap bead-microtubule attachment assay (self-assembly and microtubule binding); one His6-tagged subcomplex on anti-His5 polystyrene beads (10 nM on 3.5 pM beads), the other subcomplexes free at 10 nM each; the bead was brought to a single growing microtubule with the laser trap, and a bead whose contact did not persist with the laser off counted as a nonbinder; no external force; BRB80 growth buffer with 1 …; conditions: both partners purified
# T1 construct: Ndc80, S. cerevisiae; Nuf2, S. cerevisiae; Spc24, S. cerevisiae; Spc25, S. cerevisiae; also called Ndc80 complex; pJT048 with Ndc80/Nuf2; copies: + + +
# [4] = biological target: T1, Ndc80c (Ndc80, Nuf2, Spc24-Flag, Spc25); assay: optical trap force-ramp rupture assay; same beads and free proteins (10 nM each) as the attachment assay; bead on a growing microtubule tip, 1 pN preload, then a ramp of 0.25 pN/s until detachment; median rupture force of the whole chain; not single-molecule conditions; room temperature; conditions: both partners purified
# T1 sequence (P40460 whole entry, chain 1 of 4): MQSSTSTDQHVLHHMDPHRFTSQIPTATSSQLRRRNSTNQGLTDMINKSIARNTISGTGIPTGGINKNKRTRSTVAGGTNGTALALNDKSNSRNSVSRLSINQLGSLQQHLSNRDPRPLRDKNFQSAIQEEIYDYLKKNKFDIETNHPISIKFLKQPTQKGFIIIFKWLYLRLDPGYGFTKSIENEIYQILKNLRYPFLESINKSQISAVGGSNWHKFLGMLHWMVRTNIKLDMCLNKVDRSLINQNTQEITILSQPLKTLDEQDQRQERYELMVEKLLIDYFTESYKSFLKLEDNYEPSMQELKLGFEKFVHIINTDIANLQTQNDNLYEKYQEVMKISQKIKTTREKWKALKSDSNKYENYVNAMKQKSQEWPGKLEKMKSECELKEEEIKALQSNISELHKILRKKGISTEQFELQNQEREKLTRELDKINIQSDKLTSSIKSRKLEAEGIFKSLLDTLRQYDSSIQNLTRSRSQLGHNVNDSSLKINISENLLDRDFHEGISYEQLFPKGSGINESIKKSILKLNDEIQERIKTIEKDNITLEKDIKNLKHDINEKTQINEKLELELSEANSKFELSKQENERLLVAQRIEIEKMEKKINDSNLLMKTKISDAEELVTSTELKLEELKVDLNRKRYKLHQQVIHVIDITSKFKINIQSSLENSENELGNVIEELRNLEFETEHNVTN
# T1 sequence (P33895 whole entry, chain 2 of 4): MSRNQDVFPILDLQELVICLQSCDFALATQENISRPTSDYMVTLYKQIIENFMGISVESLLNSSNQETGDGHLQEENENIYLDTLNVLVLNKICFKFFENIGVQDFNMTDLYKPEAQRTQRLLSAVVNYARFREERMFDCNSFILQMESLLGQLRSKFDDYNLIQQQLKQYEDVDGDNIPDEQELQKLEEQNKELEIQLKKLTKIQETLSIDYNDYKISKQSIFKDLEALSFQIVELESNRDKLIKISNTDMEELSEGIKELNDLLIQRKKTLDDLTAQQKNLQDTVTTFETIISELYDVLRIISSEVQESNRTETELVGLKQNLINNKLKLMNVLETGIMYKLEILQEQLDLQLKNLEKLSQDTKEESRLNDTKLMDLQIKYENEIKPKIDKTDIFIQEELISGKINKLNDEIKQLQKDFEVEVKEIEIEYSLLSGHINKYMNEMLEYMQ
# T1 sequence (Q04477 whole entry, chain 3 of 4): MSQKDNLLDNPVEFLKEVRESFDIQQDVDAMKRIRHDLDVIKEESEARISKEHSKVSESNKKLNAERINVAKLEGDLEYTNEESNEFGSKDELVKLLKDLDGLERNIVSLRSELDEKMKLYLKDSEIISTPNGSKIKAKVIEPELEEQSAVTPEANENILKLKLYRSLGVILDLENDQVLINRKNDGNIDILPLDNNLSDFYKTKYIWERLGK
# T1 sequence (P40014 whole entry, chain 4 of 4): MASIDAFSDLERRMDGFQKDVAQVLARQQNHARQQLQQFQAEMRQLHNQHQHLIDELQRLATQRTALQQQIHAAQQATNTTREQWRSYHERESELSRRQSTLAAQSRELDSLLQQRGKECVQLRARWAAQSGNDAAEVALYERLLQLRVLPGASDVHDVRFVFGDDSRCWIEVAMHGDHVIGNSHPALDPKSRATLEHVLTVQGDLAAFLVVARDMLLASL
molecule,measurement,setting,value
Mif2-linker-(27-392)MBP (from UniProt P35201 1-549) (natural protein),median rupture force of Cse4-NCP-based chains with both Mif2 and OA free (with 2D-MIND and Ndc80c),[1],4 pN
same,median rupture force of the whole chain Cse4-NCP/Mif2/2D-MIND/Ndc80c,[1],3.3 pN
same,"percent of beads that bound microtubules (Cse4-NCP beads with free Mif2, 2D-MIND and Ndc80c)",[2],24%
B1,binding result,[3],binds
B2,binding result,[4],binds
